The target of assay [1] is T1, D2 dopamine receptor (D2R) (Homo sapiens, UniProt P14416).
T1 construct: expressed in transfected cells
Nature of the assay: Co-immunoprecipitation of βarrestin2 constructs with HA-D2R. The format is binding. The note with it: HEK-293 cells stably expressing HA-D2R, co-IP. As to the method: Cross-linking, Immunoprecipitation and Immunoblotting. […] Twenty-four hours post-transfection, cells were starved in PBS containing 10 mM HEPES (pH 7.4) for 1 h and stimulated with vehicle or agonist (isoproterenol, 1 μM; or AVP 1 μM, or Dopamine 1 μM) at 37° C. for desired times. After stimulations, β2AR stable cells were treated with the crosslinker DSP to a final concentration of […], and plates were rocked for 20 min at room temperature. Reaction was quenched by adding 25 μl of 1M Tris-Cl pH 8.5 per 1 mL volume of buffer in the dish and rocked for additional 5 min at room temperature.
Harvested cells were washed with ice-cold PBS (pH 7.4) and solubilized in an ice-cold lysis buffer (50 mM HEPES (pH 7.5), 2 mM EDTA, 250 mM NaCl, 10% (v/v) glycerol, and 0.5% (v/v) IGEPAL CA-630) that was supplemented with phosphatase and protease inhibitors (1 mM sodium orthovanadate, 1 mM sodium fluoride, 1 mM phenylmethylsulfonyl fluoride, 5 μg/ml leupeptin, 5 μg/ml aprotinin, 1 μg/ml pepstatin A, and 100 μM benzamidine). […] Cell lysate protein concentrations were determined by Bradford protein assay and equivalent μg of proteins were immunoprecipitated using anti-FLAG M2 antibody resin (for FIG. 2) or Anti-HA magnetic beads from Thermo Pierce (for FIG. 5, FIG. 7, and FIG. 8). […] HA-D2R or HA-V2R were detected using an anti-HA IgG (Cell Signaling Technologies). […]

The target in assay [2] is T2, β1 adrenergic receptor (β1AR) (Homo sapiens, UniProt P08588).
T2 construct: expressed in transfected cells
T2 sequence (P08588 whole entry, species assumed): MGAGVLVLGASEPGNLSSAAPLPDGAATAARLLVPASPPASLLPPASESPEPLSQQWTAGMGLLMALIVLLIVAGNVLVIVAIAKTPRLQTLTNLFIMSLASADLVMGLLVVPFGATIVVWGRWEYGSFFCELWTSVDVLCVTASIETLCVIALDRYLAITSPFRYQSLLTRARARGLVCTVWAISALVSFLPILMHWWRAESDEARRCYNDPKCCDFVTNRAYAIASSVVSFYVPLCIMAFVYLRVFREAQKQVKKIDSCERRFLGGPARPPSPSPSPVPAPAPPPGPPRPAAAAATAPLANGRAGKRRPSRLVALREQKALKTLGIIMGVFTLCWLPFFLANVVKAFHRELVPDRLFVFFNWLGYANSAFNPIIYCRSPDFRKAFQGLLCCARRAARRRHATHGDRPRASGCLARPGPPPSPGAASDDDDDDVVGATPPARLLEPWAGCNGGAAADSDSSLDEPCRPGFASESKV
Nature of the assay: Confocal trafficking and colocalization with β1AR. The note with it: HEK-293 cells with stable β1AR expression. It counts as cell-based. The method, then:
Immunostaining and confocal microscopy. […] Twenty-four hours post-transfection, cells were serum-starved for 4 h, and either left untreated or treated with respective agonists for the indicated times in the Figure descriptions. After stimulation, cells were fixed with 5% formaldehyde diluted in phosphate-buffered saline (PBS), permeabilized with 0.1% Triton in PBS containing 2% bovine serum albumin for 20 min and incubated at room temperature with appropriate primary antibody. The next day, cells were washed three times with PBS and incubated with Alexa594 conjugated secondary antibody for 1 h, followed by repeated washes using PBS. Confocal images were acquired using Zeiss LSM510 laser-scanning microscope using multitrack sequential with excitation (488 and 568 nm) and emission (BP 505-550 nm and LP 585 nm) filter sets. Images (1024×1024 pixels) were collected using either a 63× or 100× oil immersion lens. Images were processed for Figure presentation using Adobe Photoshop software, and any increase or decrease of brightness/contrast was applied to the entire image. The nuclear rim localization of YFP-βarrestin2-SUMO1 is readily visualized in cells with low to moderate expression of YFP-protein. In cells with high expression, this localization is present, and can be discerned by enlarging sections of the nuclear rim.

The target in assay [3] is T1, D2 dopamine receptor (D2R). Nature of the assay: BRET dose-response assay of βarrestin2 construct recruitment to D2R-RlucII. The note with it: D2R-RlucII with YFP constructs; dopamine 15 min; compared with YFP-βarrestin2. It counts as cell-based. As to the method:
HEK-293 cells were transiently transfected with D2R-RlucII along with YFP-βarr2-WT, YFP-βarr2-SUMO1 or YFP-βarr2-Ub and incubated with the indicated concentrations of dopamine for 15 min. BRET signals were measured as described in Example 1 herein, and changes following agonist treatment are expressed as a percentage of the BRET signal observed in unstimulated cells (top panel). […] The histogram (bottom panel) represents Bmax values of agonist induced BRET as means±SEM of 4 independent experiments performed in duplicates. Significance of changes in energy transfer was established by one-way ANOVA comparing signals measured for the recruitment of βarr2 fusion proteins to D2R-RlucII *p<0.01; **p<0.001.
BRET assays. […] BRET readings were acquired using Synergy Neo2 plate reader and obtained 5 min after manual addition of Rluc substrate, coelenterazine h (Promega) to a final concentration of 5 μM.
The BRET signal generated was determined by calculating the ratio of light emitted by YFP (520-550 nm) over the light emitted by Rluc (440-480 nm). These values were then corrected by subtracting the background signal (detected when the Rluc-tagged construct was expressed without acceptor) from the BRET signal detected in cells co-expressing both donor and acceptor constructs. […]
Background: Bioluminescence resonance energy transfer reports proximity on the nanometre scale.

T1 sequence (P14416 whole entry): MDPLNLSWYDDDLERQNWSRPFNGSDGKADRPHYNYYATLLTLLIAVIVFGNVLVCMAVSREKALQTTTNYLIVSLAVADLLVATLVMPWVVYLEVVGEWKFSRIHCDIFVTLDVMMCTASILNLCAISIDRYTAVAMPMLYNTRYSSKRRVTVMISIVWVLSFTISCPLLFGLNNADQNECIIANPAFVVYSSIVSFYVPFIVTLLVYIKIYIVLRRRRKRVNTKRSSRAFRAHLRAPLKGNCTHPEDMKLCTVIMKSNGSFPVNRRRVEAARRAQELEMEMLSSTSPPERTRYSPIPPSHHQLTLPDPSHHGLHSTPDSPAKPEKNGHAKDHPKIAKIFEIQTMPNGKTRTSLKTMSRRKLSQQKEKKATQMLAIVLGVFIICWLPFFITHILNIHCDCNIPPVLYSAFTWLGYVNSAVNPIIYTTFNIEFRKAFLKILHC

Consider “βarrestin2-SUMO1: rat βarrestin2 polypeptide fused to human SUMO1 (SEQ ID NO:1); used YFP- or Flag-tagged”, for which, in assay [1] (20 minutes of 1 μM dopamine, Western blot), the “binding to activated D2R relative to wild-type βarrestin2” value is reported as 3-4 fold. Moreover, the “D2R-binding affinity versus βarrestin2” value in assay [1] (five minutes of 1 μM dopamine) is on record as “no significant difference”. In assay [2], the “association with β1AR after isoproterenol activation (confocal)” value was “strongly and stably”. In addition, in assay [3], the “agonist-mediated increase in energy transfer (net BRET) with D2R” value is recorded as “greater”.

These data come from patent US20230227514A1, “BETA-ARRESTIN COMPOSITIONS AND ASSOCIATED METHODS” (Duke University, priority 2020, published 2023).
